Laboratory results as given in patent publication US20230212549A1 (3B PHARMACEUTICALS, published 2023).
Several values for one entry are separate records, joined by “and”; a condition that tells them apart may be missing. Equal entries are not always repeated. Numbered stars: 1 amine (or outer) side, 2 acyl side, 3 side chain; on linkers, the order of the positions; unused ones are H or OH. Bridge positions count the residues as written; N and C are the ends. Square brackets hold non-standard residues; d marks the D form. Primed or numbered codes have the meaning given here. * marks the point of attachment. tMeBn(DOTA-PP) = 1,3,5-trimethylbenzylidene, two thioethers to Cys, third CH2 bound to one N of piperazine whose other N bears DOTA, O=C(O)CN1CCN(CC(=O)O)CCN(CC(=O)N2CCN(Cc3cc(C[*:1])cc(C[*:2])c3)CC2)CCN(CC(=O)O)CC1; Ttds″ = 1,13-diamino-4,7,10-trioxatridecan-succinamic acid spacer, O=C(CCC(=O)[*:2])NCCCOCCOCCOCCCN[*:1]; Ttds(6) = 1,13-Diamino-4,7,10-trioxatridecan-succinamic acid, O=C(CCC(=O)[*:2])NCCCOCCOCCOCCCN[*:1]; Ttds = 1,13-diamino-4,7,10-trioxatridecan-succinamic acid, O=C(CCC(=O)[*:2])NCCCOCCOCCOCCCN[*:1]; 3MeBn = 3-Methylbenzylidene (m-xylylene thioether bridge from α,α′-dibromo-m-xylene); N4Ac = 6-Carboxy-1,4,8,11-tetraazaundecane, an N4-chelator, NCCNCC(CNCCN)C(=O)*; APAc = 2-(4-(Amino)piperidin-1-yl)acetic acid, O=C(CN1CCC(N[*:1])CC1)[*:2]; 3MeBn(3) = 3-methylbenzylidene (m-xylylene), from α,α′-dibromo-m-xylene; DOTA = O=C(O)CN1CCN(CC(=O)O)CCN(CC(=O)*)CCN(CC(=O)O)CC1; γGlu = O=C(O)[C@H](CCC(=O)[*:2])N[*:1]; mXylylene = c1cc(C[*:1])cc(C[*:2])c1; Nle = CCCC[C@H](N)C(=O)O; Nphe = O=C(O)CNCc1ccccc1; Hexanoyl = CCCCCC(=O)*; Nleu = CC(C)CNCC(=O)O; Nlys = NCCCCNCC(=O)O

B1: DOTA-Ttds-Nle-[Cys(3MeBn)-Pro-Pro-Thr-Glu-Phe-Cys]-NH2 (peptide)
peptide: {DOTA}-[Ttds][Nle]CPPTEFC-NH2
modifications: linker 3-9 via mXylylene
SMILES: CCCC[C@H](NC(=O)CCC(=O)NCCCOCCOCCOCCCNC(=O)CN1CCN(CC(=O)O)CCN(CC(=O)O)CCN(CC(=O)O)CC1)C(=O)N[C@H]1CSCc2cccc(c2)CSC[C@@H](C(N)=O)NC(=O)[C@H](Cc2ccccc2)NC(=O)[C@H](CCC(=O)O)NC(=O)[C@H]([C@@H](C)O)NC(=O)[C@@H]2CCCN2C(=O)[C@@H]2CCCN2C1=O
notes: also called 3BP-3319
B2: DOTA-Ttds-Nle-[Cys(3MeBn)-Pro-Pro-Thr-Glu-Phe-Cys]-Asp-NH2 (peptide)
peptide: {DOTA}-[Ttds][Nle]CPPTEFCD-NH2
modifications: linker 3-9 via mXylylene
SMILES: CCCC[C@H](NC(=O)CCC(=O)NCCCOCCOCCOCCCNC(=O)CN1CCN(CC(=O)O)CCN(CC(=O)O)CCN(CC(=O)O)CC1)C(=O)N[C@H]1CSCc2cccc(c2)CSC[C@@H](C(=O)N[C@@H](CC(=O)O)C(N)=O)NC(=O)[C@H](Cc2ccccc2)NC(=O)[C@H](CCC(=O)O)NC(=O)[C@H]([C@@H](C)O)NC(=O)[C@@H]2CCCN2C(=O)[C@@H]2CCCN2C1=O
notes: also called 3BP-3320
B3: Hex-[Cys(3MeBn)-Nlys-Pro-Thr-Gln-Phe-Cys]-NH2 (peptide)
peptide: Hexanoyl-C[Nlys]PTQFC-NH2
modifications: linker 1-7 via mXylylene
SMILES: CCCCCC(=O)N[C@H]1CSCc2cccc(c2)CSC[C@@H](C(N)=O)NC(=O)[C@H](Cc2ccccc2)NC(=O)[C@H](CCC(N)=O)NC(=O)[C@H]([C@@H](C)O)NC(=O)[C@@H]2CCCN2C(=O)CN(CCCCN)C1=O
B4: Hex-[Cys(3MeBn)-Nphe-Pro-Thr-Gln-Phe-Cys]-NH2 (peptide)
peptide: Hexanoyl-C[Nphe]PTQFC-NH2
modifications: linker 1-7 via mXylylene
SMILES: CCCCCC(=O)N[C@H]1CSCc2cccc(c2)CSC[C@@H](C(N)=O)NC(=O)[C@H](Cc2ccccc2)NC(=O)[C@H](CCC(N)=O)NC(=O)[C@H]([C@@H](C)O)NC(=O)[C@@H]2CCCN2C(=O)CN(Cc2ccccc2)C1=O
B5: Hex-[Cys(3MeBn)-Nleu-Pro-Thr-Gln-Phe-Cys]-NH2 (peptide)
peptide: Hexanoyl-C[Nleu]PTQFC-NH2
modifications: linker 1-7 via mXylylene
SMILES: CCCCCC(=O)N[C@H]1CSCc2cccc(c2)CSC[C@@H](C(N)=O)NC(=O)[C@H](Cc2ccccc2)NC(=O)[C@H](CCC(N)=O)NC(=O)[C@H]([C@@H](C)O)NC(=O)[C@@H]2CCCN2C(=O)CN(CC(C)C)C1=O
B6: Hex-[Cys(tMeBn(DOTA-PP))-Pro-Thr-Pro-Phe-Gln-Cys]-Asp-NH2 (peptide)
peptide: Hexanoyl-CPTPFQCD-NH2
modifications: linker 1-7 via tMeBn(DOTA-PP)
SMILES: CCCCCC(=O)N[C@H]1CSCc2cc(cc(CN3CCN(C(=O)CN4CCN(CC(=O)O)CCN(CC(=O)O)CCN(CC(=O)O)CC4)CC3)c2)CSC[C@@H](C(=O)N[C@@H](CC(=O)O)C(N)=O)NC(=O)[C@H](CCC(N)=O)NC(=O)[C@H](Cc2ccccc2)NC(=O)[C@@H]2CCCN2C(=O)[C@H]([C@@H](C)O)NC(=O)[C@@H]2CCCN2C1=O
B7: Hex-[Cys(tMeBn(DOTA-PP))-Phe-Gln-Thr-Pro-Pro-Cys]-Asp-NH2 (peptide)
peptide: Hexanoyl-CFQTPPCD-NH2
modifications: linker 1-7 via tMeBn(DOTA-PP)
SMILES: CCCCCC(=O)N[C@H]1CSCc2cc(cc(CN3CCN(C(=O)CN4CCN(CC(=O)O)CCN(CC(=O)O)CCN(CC(=O)O)CC4)CC3)c2)CSC[C@@H](C(=O)N[C@@H](CC(=O)O)C(N)=O)NC(=O)[C@@H]2CCCN2C(=O)[C@@H]2CCCN2C(=O)[C@H]([C@@H](C)O)NC(=O)[C@H](CCC(N)=O)NC(=O)[C@H](Cc2ccccc2)NC1=O
B8: Hex-[Cys(tMeBn(DOTA-PP))-Thr-Gln-Pro-Phe-Pro-Cys]-Asp-NH2 (peptide)
peptide: Hexanoyl-CTQPFPCD-NH2
modifications: linker 1-7 via tMeBn(DOTA-PP)
SMILES: CCCCCC(=O)N[C@H]1CSCc2cc(cc(CN3CCN(C(=O)CN4CCN(CC(=O)O)CCN(CC(=O)O)CCN(CC(=O)O)CC4)CC3)c2)CSC[C@@H](C(=O)N[C@@H](CC(=O)O)C(N)=O)NC(=O)[C@@H]2CCCN2C(=O)[C@H](Cc2ccccc2)NC(=O)[C@@H]2CCCN2C(=O)[C@H](CCC(N)=O)NC(=O)[C@H]([C@@H](C)O)NC1=O
B9: N4Ac-gGlu-Nle-[Cys-(3MeBn)-Pro-Pro-Thr-Glu-Phe-Cys]-OH (peptide)
peptide: N4Ac-[γGlu][Nle]CPPTEFC-OH
modifications: linker 3-9 via mXylylene
SMILES: CCCC[C@H](NC(=O)CC[C@H](NC(=O)C(CNCCN)CNCCN)C(=O)O)C(=O)N[C@H]1CSCc2cccc(c2)CSC[C@@H](C(=O)O)NC(=O)[C@H](Cc2ccccc2)NC(=O)[C@H](CCC(=O)O)NC(=O)[C@H]([C@@H](C)O)NC(=O)[C@@H]2CCCN2C(=O)[C@@H]2CCCN2C1=O
B10: N4Ac-Ttds-Glu(AGLU′)-Nle-[Cys-(3MeBn)-Pro-Pro-Thr-Glu-Phe-Cys]-OH (peptide)
peptide: N4Ac-[Ttds(6)]E[Nle]CPPTEFC-OH
modifications: linker 4-10 via 3MeBn; not fully specified (residue 2); printed as N4Ac-Ttds-Glu(AGLU′)-Nle-[Cys-(3MeBn)-Pro-Pro-Thr-Glu-Phe-Cys]-OH
B11: Hex-[Cys(3MeBn)-Pro-Pro-Thr-Gln-Phe-Cys]-Asp-Ttds-Lys(DOTA)-NH2 (peptide)
peptide: Hexanoyl-CPPTQFCD[Ttds″]K(DOTA)-NH2
modifications: linker 1-7 via mXylylene
SMILES: CCCCCC(=O)N[C@H]1CSCc2cccc(c2)CSC[C@@H](C(=O)N[C@@H](CC(=O)O)C(=O)NCCCOCCOCCOCCCNC(=O)CCC(=O)N[C@@H](CCCCNC(=O)CN2CCN(CC(=O)O)CCN(CC(=O)O)CCN(CC(=O)O)CC2)C(N)=O)NC(=O)[C@H](Cc2ccccc2)NC(=O)[C@H](CCC(N)=O)NC(=O)[C@H]([C@@H](C)O)NC(=O)[C@@H]2CCCN2C(=O)[C@@H]2CCCN2C1=O
notes: also called 3BP-3395

Assays:
[1] = molecular target: Recombinant human FAP (R&D systems, #3715-SE) (human, UniProt Q12884 26-760); assay: cell-based or functional assay
[2] = molecular target: T1, fibroblast activation protein (FAP) on FAP-expressing human WI-38 fibroblasts (human, UniProt Q12884 1-760); assay: competitive FACS, WI-38 cells, vs Cy5 tracer m3; B = pIC50 7.1-8.0
T1 construct: also called human FAP

[3] = molecular target: T2, Recombinant human FAP (R&D systems, #3715-SE) (human, UniProt Q12884 26-760); assay: cell-based or functional assay; remark: listed apart in the source
[4] = molecular target: T2, Recombinant human FAP (R&D systems, …); assay: SPR (Biacore T200), FAP captured on anti-FAP antibody, single cycle kinetics

| Binder | pIC50 Category (Activity) [3] [pIC50] | other results |
| --- | --- | --- |
| B1 | – | pIC50 Category (Activity) [1]: 7.1 pIC50 and 8 pIC50; pIC50 Category (FACS) [2]: 7.1 pIC50 and 8 pIC50 |
| B2 | – | pIC50 Category (Activity) [1]: > 8 pIC50; pIC50 Category (FACS) [2]: 7.1 pIC50 and 8 pIC50 |
| B3 | ≤ 6 | – |
| B4 | ≤ 6 | – |
| B5 | ≤ 6 | – |
| B6 | ≤ 6 | – |
| B7 | ≤ 6 | – |
| B8 | ≤ 6 | – |
| N4Ac-[APAc][Nle]CPPTEFC-OH (linker 3-9 via 3MeBn(3)) [N4Ac-APAc-Nle-[Cys-(3MeBn)-Pro-Pro-Thr-Glu-Phe-Cys]-OH] | ≤ 6 | – |
| B9 | ≤ 6 | – |
| B10 | ≤ 6 | – |
| B11 | – | pKD Category [4]: > 8 pKD |
